# Assay results as given in IntAct's records for PubMed 25332407.
# B1: Nuclear distribution protein nudE homolog 1 (Homo sapiens), Q9NXR1 (parent)
# chain: MEDSGKTFSSEEEEANYWKDLAMTYKQRAENTQEELREFQEGSREYEAELETQLQQIETRNRDLLSENNRLRMELETIKEKFEVQHSEGYRQISALEDDLAQTKAIKDQLQKYIRELEQANDDLERAKRATIMSLEDFEQRLNQAIERNAFLESELDEKENLLESVQRLKDEARDLRQELAVQQKQEKPRTPMPSSVEAERTDTAVQATGSVPSTPIAHRGPSSSLNTPGSFRRGLDDSTGGTPLTPAARISALNIVGDLLRKVGALESKLASCRNLVYDQSPNRTGGPASGRSSKNRDGGERRPSSTSVPLGDKGLDTSCRWLSKSTTRSSSSC
# Variants of: B1
# Conditions: with 1433e_human YWHAE
row,Variant,effect of a mutation on the interaction
1,S214A,with no effect
2,S214F,decreasing interaction strength
3,R234C,with no effect
4,T215A,decreasing interaction strength
